Data on 1 molecule can be found in PMC10997794, “Seeding the meiotic DNA break machinery and initiating recombination on chromosome axes” (Nature Communications, 2024).

The target in this test is T1, SUMO-His tagged HORMAD1 HORMA (residues 1-235) (mouse, UniProt Q9D5T7 1-235).
T1 construct: HORMAD1, mouse, HORMA domain, amino acids 1-235, from codon-optimized synthetic DNA; also called the HORMA domain of HORMAD1; source: E. coli BL21(DE3), purified (Talon, ion exchange, SEC); not shown: SUMO, N-terminal, kept; His, N-terminal, kept
T1 sequence (looked up): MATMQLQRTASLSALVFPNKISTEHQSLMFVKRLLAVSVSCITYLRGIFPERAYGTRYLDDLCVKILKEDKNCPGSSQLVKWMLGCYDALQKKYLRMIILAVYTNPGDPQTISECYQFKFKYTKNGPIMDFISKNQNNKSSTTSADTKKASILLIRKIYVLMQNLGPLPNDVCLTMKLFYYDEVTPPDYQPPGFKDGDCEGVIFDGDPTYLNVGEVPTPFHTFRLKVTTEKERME
As to the kind of experiment: pull-down; amylose pull-down; MBP-tagged IHO1 truncations as baits at 1 µM with 12 µM SUMO-His HORMAD1 HORMA; 20 mM HEPES pH 7.5, 100 mM NaCl, 5% glycerol, 1 mM TCEP, 0.1% Tween20; 8 °C; Coomassie and immunoblot. Conditions: both partners purified.

B1: MBP-tagged IHO1 truncation, residues 359-574 (domain or fragment, mouse, UniProt Q6PDM4 359-574, looked up)
chain: KNWVMTTRSVSNHFSNLPSQRAGNGQGLMAQGASQRDVSKFEARVKNACPEYGPQSMCSFDSLEQSATEQKGRPCRKRRRGKKQQPQRSKRGGLLDRKQGQTSKAACAFIARHHCPQSPVCDPQGPLICWLTPRSSTKSTCHILGGTGETSQTARAAQGNLVQHSQRSSTDSSSQGDQQINWFSDLSLENLEPPQCKKGGTNLLCDPDFDSSDDNF
notes: The MBP tag is 3C HRV cleavable but was kept for the amylose pull-down; source: High Five insect cells (baculovirus), purified (MBP-trap, Resource Q, Superdex200); not shown: MBP, N-terminal, kept
As for B1, the binding result is reported as “binds”.
